Biological target: His-tagged full-length p53 (UniProt P04637 1-393)
Assay: co-IP

Chain of His-tagged full-length p53 (P04637 whole entry): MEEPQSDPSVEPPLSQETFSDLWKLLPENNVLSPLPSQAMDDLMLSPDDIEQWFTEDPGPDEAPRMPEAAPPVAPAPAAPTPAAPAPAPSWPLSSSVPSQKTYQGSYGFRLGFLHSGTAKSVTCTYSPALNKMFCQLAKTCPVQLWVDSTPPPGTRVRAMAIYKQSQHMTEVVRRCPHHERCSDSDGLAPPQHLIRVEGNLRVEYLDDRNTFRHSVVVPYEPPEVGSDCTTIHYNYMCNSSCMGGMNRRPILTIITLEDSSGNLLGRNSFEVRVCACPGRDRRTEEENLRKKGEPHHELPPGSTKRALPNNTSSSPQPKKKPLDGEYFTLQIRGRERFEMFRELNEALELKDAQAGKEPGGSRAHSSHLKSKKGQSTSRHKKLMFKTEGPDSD

B1: His-tagged minimal-binding region of Dmp1 for p53 (M14: amino acids 87–224) (domain or fragment, UniProt Q8CE22 87-224, looked up)
chain: VTMTATTEVADDELSEGTVTQIQILQNDQLDEISPLGTEEVSAVSQAWFTTKEDKDSLTNKGHKWKQGMWSKEEIDILMNNIERYLKARGIKDATEIIFEMSKDERKDFYRTIAWGLNRPLFAVYRRVLRMYDDRNHV
binding result: binds

Reference: PMC3319807 (Cancer Research, 2012)
